Publication PMC4624963, “Enzymatic Characterization of Recombinant Food Vacuole Plasmepsin 4 from the Rodent Malaria Parasite Plasmodium berghei” (PLoS ONE, 2015)
Where no end group is shown, it is not given here. [ ]: non-standard residue; d: D form. Nle = CCCC[C@H](N)C(=O)O

Columns and labels:
Conditions in all cases: both partners purified
[1] = molecular target: T1, plasmepsin 4 from Plasmodium falciparum (Plasmodium falciparum, UniProt Q8IM16 122-449); test: enzyme inhibition kinetics (Ki of competitive inhibition); initial cleavage velocities of a chromogenic peptide substrate at varied inhibitor concentration; plasmepsins pre-incubated in 100 mM sodium formate pH 4.5, 37°C, 5 min to convert zymogen to mature enzyme
T1 construct: also called PfPM4; source: zymogen converted to mature enzyme at pH 4.5, 37°C, 5 min

[2] = molecular target: T2, plasmepsin 2 from Plasmodium falciparum (Plasmodium falciparum, UniProt P46925 125-453); test: as above
T2 construct: also called PfPM2; source: zymogen converted to mature enzyme at pH 4.5, 37°C, 5 min

[3] = molecular target: T3, plasmepsin 1 from Plasmodium falciparum (Plasmodium falciparum, UniProt P39898 124-452); test: enzyme inhibition kinetics (Ki of competitive inhibition); initial cleavage velocities of a chromogenic peptide substrate at varied inhibitor concentration; mature PfPM1 pre-incubated in 100 mM sodium citrate pH 5.5, 37°C, 3 min
T3 construct: also called PfPM1

[4] = molecular target: T4, mature plasmepsin 4 of Plasmodium berghei (PbPM4), auto-matured from semi-proPbPM4 (Plasmodium berghei ANKA); test: enzyme inhibition kinetics (Ki of competitive inhibition); initial cleavage velocities of a chromogenic peptide substrate at varied inhibitor concentration, spectrophotometric; proPbPM4 pre-incubated in 100 mM sodium citrate pH 5.0, 37°C, 5 min; tight-binding or non-tight-binding competitive fit
T4 construct: also called mature PbPM4; FV plasmepsin 4; source: converted to mature enzyme by 5 min pre-incubation in sodium citrate pH 5.0 at 37°C

| Binder | Ki [1] [nM] | Ki [2] [nM] | Ki [3] [nM] | Ki [4] [nM] |
| --- | --- | --- | --- | --- |
| KPYEFRQF (not fully specified (residue 5); printed as KPYEFΨRQF; also: Ψ pseudo-peptide bond between F5 and R6, source: synthetic peptide) [compound 1 (KPYEFΨRQF), peptidomimetic inhibitor designed for PbPM4] | 190 ± 19 | 35000 | > 100000 | – |
| KP[Nle]S[Nle]LQI (also: reduced amide Ψ[CH2-NH] between Nle5 and Leu6) [compound 3 (KPnLSnLΨLQI), peptidomimetic inhibitor designed for PfPM2] | – | – | – | 375 ± 54 |
